The source of these data is PMC2670981, “Divergence of Catalytic Mechanism within a Glycosidase Family Provides Insight into Evolution of Carbohydrate Metabolism by Human Gut Flora” (Chemistry & Biology, 2008).

The data set deals with O=[N+]([O-])c1ccc(O[C@H]2O[C@H](CO)[C@@H](O)[C@H](O)[C@H]2O)c([N+](=O)[O-])c1. The data set is described as follows: purified protein. Conditions: Ca2+.

As usually defined, the Km is the concentration of substrate that gives half-maximal velocity. In general, kcat refers to the number of substrate molecules converted per active site and unit of time at saturation. Broadly, the kcat/Km is the turnover number divided by the Michaelis constant.

As to “BtGH97a (Bacteroides thetaiotaomicron VPI-5482)”, the Km amounted to 140 ± 10 µM, the kcat was determined as 280 ± 7 s⁻¹ and the kcat/Km was found to be 2e+06 M⁻¹ s⁻¹.
